{
  "source": "patent US20220340678A1",
  "about": "(MURAL ONCOLOGY, published 2022)",
  "binders": {"B1": {"name": "Mouse cpIL-2:IL-2Ra (other)", "chain": "SSKSFQLEDAENFISNIRVTVVKLKGSDNTFECQFDDESATVVDFLRRWIAFCQSIISTSPQGGSSSTQQQQQHLEQLLMDLQELLSRMENYRNLKLPRMLTFKFYLPKQATELKDLQCLEDELGPLRHVLDLTQGSGGGSELCLYDPPEVPNATFKALSYKNGTILNCECKRGFRRLKELVYMRCLGNSWSSNCQCTSNSHDKSRKQVTAQLEHQKEQQTTTDMQKPTQSMHQENLTGHCREPPPWKHEDSKRIYHFVEGQSVHYECIPGYKALQRGPAISICKMKCGKTGWTQPQLTCVD"}, "B2": {"name": "Mouse uPA-ATF:Mouse cpIL-2:IL-2Ra:His6 (other)", "chain": "GSVLGAPDESNCGCQNGGVCVSYKYFSRIRRCSCPRKFQGEHCEIDASKTCYHGNGDSYRGKANTDTKGRPCLAWNAPAVLQKPYNAHRPDAISLGLGKHNYCRNPDNQKRPWCYVQIGLRQFVQECMVHDCGGSGGSKSFQLEDAENFISNIRVTVVKLKGSDNTFECQFDDESATVVDFLRRWIAFCQSIISTSPQGGSSSTQQQQQHLEQLLMDLQELLSRMENYRNLKLPRMLTFKFYLPKQATELKDLQCLEDELGPLRHVLDLTQGSGGGSELCLYDPPEVPNATFKALSYKNGTILNCECKRGFRRLKELVYMRCLGNSWSSNCQCTSNSHDKSRKQVTAQLEHQKEQQTTTDMQKPTQSMHQENLTGHCREPPPWKHEDSKRIYHFVEGQSVHYECIPGYKALQRGPAISICKMKCGKTGWTQPQLTCVDHHHHHH"}, "B3": {"name": "IL-12 p35 C74D variant (other)", "chain": "RNLPVATPDPGMFPCLHHSQNLLRAVSNMLQKARQTLEFYPCTSEEIDHEDITKDKTSTVEACLPLELTKNESDLNSRETSFITNGSCLASRKTSFMMALCLSSIYEDLKMYQVEFKTMNAKLLMDPKRQIFLDQNMLAVIDELMQALNFNSETVPQKSSLEEPDFYKTKIKLCILLHAFRIRAVTIDRVMSYLNAS"}, "B4": {"name": "IL-12 p35 C74W variant (other)", "chain": "B3 chain with D74W"}, "B5": {"name": "IL-12 p35 C74Y variant (other)", "chain": "B3 chain with D74Y"}, "B6": {"name": "IL-12 p35 C74K variant (other)", "chain": "B3 chain with D74K"}, "B7": {"name": "M8-H3/L2B10 (antibody)", "heavy": "not shown", "light": "DIQMTQSPSSLSASVGDTVTITCRTSENIYSNLAWYQQKPGKSPQLLVYAATNLADGVPSRFSGSGSGTDYTLTISSLQPEDFGTYYCQHFWGTPWTFGGGTKVEIKTVAAPSVFIFPPSDEQLKSGTASVVCLLNNFYPREAKVQWKVDNALQSGNSQESVTEQDSKDSTYSLSSTLTLSKADYEKHKVYACEVTHQGLSSPVTKSFNRGEC", "notes": "also called humanized M8"}, "B8": {"name": "M8-H3/L2B2 (antibody, V domains shown)", "VH": "QIQLVQSGSELKKPGASVKISCKASGTTFTDYGMNWVKQSPGKGLKWMGWINTNTGEPTYAEDFKGRFVFSLDTSVSTAYLQISSLKAEDTATYFCAHYSFDYWGQGTLLTVSS", "VL": "DIQMTQSPSSLSASVGDTVTITCRTSENIYSNLAWYQQKPGKSPQLLVYAATNLADGVPSRFSGSGSGTQYTLKISSLQPEDFATYYCQHFWGTPWTFGGGTKVEIKT", "notes": "also called humanized M8"}, "B9": {"name": "M8-H3/L2B5 (antibody)", "heavy": "not shown", "light": "B7 light with T18R", "notes": "also called humanized M8"}, "B10": {"name": "M43-Chimeric (antibody, V domains shown)", "VH": "QVQLQQSGAELARPGASVNLSCKASGYTFTSYGISWVKQRTGQGLEWIGEIYPRSGNTYYNEKFKGKATLTADKSSRTAYMELRSLTSEDSAVYFCAGKDYGSTYADYWGQGTTLTVSS", "VL": "QIVLTQSPAIMSASPGEKVTMTCSASSSVSSRYLHWYQQKSGASPKLWIYGTSNLASGVPARFSGSGSGTSYSLTINSVEAEDAATYYCQQYHSDPLTFGAGTKLELK"}, "B11": {"name": "M43-H1bm5/L4 (antibody, V domains shown)", "VH": "B10 VH with Q5V, L11V, R13K, S21N, K38R, A68V, A72T, S76T, S91T, F95Y", "VL": "QIVLTQSPATLSASPGERVTMTCSASSSVSSRYLHWYQQKSGASPRLWIYGTSNLASGVPARFSGSGPGTSYTLTISSVEPEDAATYYCQQYHSDPLTFGQGTKLELKT", "notes": "also called humanized M43"}, "B12": {"name": "M43-H4bm5/L4 (antibody, V domains shown)", "VH": "B10 VH with L11V, R13K, S21N, K38R, S76T, S91T", "VL": "B11 VL", "notes": "also called humanized M43"}, "B13": {"name": "M1-Chimeric (antibody, V domains shown)", "VH": "EVQLQQSGAELVRPGASVKLSCTASGFNIKDEYINWVKQRPEQGLEWIGWIDPENGDTEYASKFQGKATITADTSSNTAYLQLSSLTSEDTAVYYCTGGNYVGWFPYWGQGTLVTVSA", "VL": "QIVLTQSPAIMSASPGEKVTMTCSASSSVSYMHWYQQKSGTSPKRWLYDTSKLASGVPARFSGSGSGTSYSLTISSMEAEDAATYYCQQWSSNPPYTFGGGTKLEIK"}, "B14": {"name": "M8-Chimeric (antibody, V domains shown)", "VH": "QIQLVQSGPELKKPGETVKISCKASGNTFTDYGMNWVKQSPGKGLKWMGWINTNTGEPTYADDFKGRFAFSLETSASTAYLQINNLKNEDMATYFCAHYSFDYWGQGTTLTVSS", "VL": "DIQMTQSPASLSVSVGQTVTITCRTSENIYSNLAWYQQKPGKSPQLLVYAATNLADGVPSRFSGSGSGTQYSLKINSLQSEDFGSYYCQHFWGTPWTFGGGTKLEIK"}, "B15": {"name": "M1-H3/L4 (antibody, V domains shown)", "VH": "EVQLQQSGAEVKKPGATVKLSCTASGFNIKDEYINWVKQRPGQGLEWIGWIDPENGDTEYASKFQGRATITADTSTDTAYLELSSLRSEDTAVYYCTGGNYVGWFPYWGQGTLVTVSS", "VL": "QIVLTQSPATLSASPGERVTMSCSASSSVSYMHWYQQKPGTSPRRWLYDTSKLASGVPARFSGSGSGTDYTLTISSLEPEDFATYYCQQWSSNPPYTFGQGTKLEIKT", "notes": "also called humanized M1"}, "B16": {"name": "M1-H1/L4 (antibody, V domains shown)", "VH": "B15 VH with Q5V, L20I, Q43K, A68V", "VL": "B15 VL", "notes": "also called humanized M1"}, "B17": {"name": "M1-H3/L1 (antibody, V domains shown)", "VH": "B15 VH", "VL": "B15 VL with Q1E, A13L, V19A, M21L, L47I, Y70F, T84V", "notes": "also called humanized M1"}},
  "note": "Positions count from the first letter of the chain named. In names and notes the source's numbering stands.",
  "data": [
    {"target": "IL-2/IL-15 receptor on primary mouse splenocytes (mouse)", "test": "cell-based or functional assay", "units": {"pSTAT5 EC50, mouse NK cells": "nM", "pSTAT5 EC50, mouse Tregs": "nM", "pSTAT5 EC50, mouse memory CD8 T cells": "nM"}, "values": [
      {"binder": "B1", "pSTAT5 EC50, mouse NK cells": 19, "pSTAT5 EC50, mouse Tregs": 22, "pSTAT5 EC50, mouse memory CD8 T cells": 23},
      {"binder": "B2", "pSTAT5 EC50, mouse NK cells": 35, "pSTAT5 EC50, mouse Tregs": 22, "pSTAT5 EC50, mouse memory CD8 T cells": 38}
    ]},
    {"target": "T1, IL-12 p40 C177S variant (human, UniProt P29460 23-328)", "T1 sequence": "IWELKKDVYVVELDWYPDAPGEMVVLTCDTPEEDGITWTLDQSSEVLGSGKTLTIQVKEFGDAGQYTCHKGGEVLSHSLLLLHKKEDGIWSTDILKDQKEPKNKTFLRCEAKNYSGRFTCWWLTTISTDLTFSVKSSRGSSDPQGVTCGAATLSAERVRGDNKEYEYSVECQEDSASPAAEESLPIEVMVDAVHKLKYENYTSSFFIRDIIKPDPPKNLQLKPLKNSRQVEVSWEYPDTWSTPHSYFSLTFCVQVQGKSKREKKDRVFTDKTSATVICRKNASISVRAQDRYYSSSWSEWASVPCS", "test": "BLI (Octet), p35 C74 variant against p40 C177S", "units": {"Kd": "nM", "koff": "s⁻¹", "kon": "M⁻¹ s⁻¹"}, "values": [
      {"binder": "B3", "Kd": 57.1, "koff": 0.001, "kon": 17600},
      {"binder": "B4", "Kd": 27, "koff": 0.000432, "kon": 16000},
      {"binder": "B5", "Kd": 23.2, "koff": 0.000411, "kon": 17700},
      {"binder": "B6", "Kd": 19.6, "koff": 0.000508, "kon": 25900}
    ]},
    {"target": "T2, IL-12 p40 C177F variant (human, UniProt P29460 23-328)", "T2 sequence": "T1 sequence with S177F", "test": "BLI (Octet), p35 C74 variant against p40 C177F", "units": {"Kd": "nM", "koff": "s⁻¹", "kon": "M⁻¹ s⁻¹"}, "values": [
      {"binder": "B3", "Kd": 60.2, "koff": 0.000719, "kon": 11900},
      {"binder": "B4", "Kd": 25.4, "koff": 0.000291, "kon": 11500},
      {"binder": "B5", "Kd": 23.8, "koff": 0.000298, "kon": 12500},
      {"binder": "B6", "Kd": 18.4, "koff": 0.000295, "kon": 16000}
    ]},
    {"target": "T3, histidine-tagged human uPAR (Sino#10925-H08H) (human, UniProt Q03405 23-303)", "T3 construct": "also called uPAR-His", "test": "BLI (Octet), antibody on anti-human Fc sensor, uPAR from 50 nM;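 note: antibodies captured at 10 µg/mL on anti-human Fc biosensors, with uPAR as analyte in a twofold dilution series from 50 nM downward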", "units": {"Kd": "nM", "koff": "s⁻¹", "kon": "M⁻¹ s⁻¹"}, "values": [
      {"binder": "B7", "Kd": 2.35, "koff": 0.000477, "kon": 203000},
      {"binder": "B8", "Kd": 1.74, "koff": 0.000427, "kon": 246000},
      {"binder": "B9", "Kd": 1.65, "koff": 0.000351, "kon": 213000},
      {"binder": "B10", "Kd": 15.1, "koff": 0.00606, "kon": 402000},
      {"binder": "B11", "Kd": 15.9, "koff": 0.00658, "kon": 415000},
      {"binder": "B12", "Kd": 14.7, "koff": 0.00666, "kon": 454000},
      {"binder": "B13", "Kd": 1.11, "koff": 0.000701, "kon": 629000},
      {"binder": "B14", "Kd": 1.79, "koff": 0.00049, "kon": 273000},
      {"binder": "B15", "Kd": 1.3, "koff": 0.000893, "kon": 686000},
      {"binder": "B16", "Kd": 1.48, "koff": 0.000986, "kon": 665000},
      {"binder": "B17", "Kd": 1.64, "koff": 0.00111, "kon": 677000}
    ]},
    {"target": "T4, Recombinant mouse uPAR-Fc (R&D Systems, Cat. No. 531-PA-100) (mouse, UniProt P35456 24-297, limits assumed)", "T4 construct": "not shown: Fc of the bought fusion (captured with the human antibody capture kit); not described", "T4 sequence (looked up)": "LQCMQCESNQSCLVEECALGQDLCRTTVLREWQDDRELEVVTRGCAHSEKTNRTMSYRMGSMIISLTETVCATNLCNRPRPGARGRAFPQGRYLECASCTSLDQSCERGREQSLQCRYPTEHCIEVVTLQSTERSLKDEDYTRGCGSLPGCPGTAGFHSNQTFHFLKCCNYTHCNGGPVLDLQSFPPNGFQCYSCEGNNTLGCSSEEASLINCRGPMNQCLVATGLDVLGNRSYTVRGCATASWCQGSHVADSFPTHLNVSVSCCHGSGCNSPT", "test": "SPR (Biacore), mouse uPAR-Fc captured on anti-human antibody chip", "units": {"Kd": "nM", "koff": "s⁻¹", "kon": "M⁻¹ s⁻¹"}, "values": [
      {"binder": "B2", "Kd": 0.14, "koff": 0.0002, "kon": "1.4e+06"}
    ]}
  ]
}
